Measurements reported in the supplement of paper PMC10567573.

B1: IFRG15 (parent)
chain: INRADYCPECYPDNPANRSLVLPW
B2: HMOX1 (parent)
chain: YHIYVALEEEIERNKESPVFAPVY

Variants of: B1
Test: protein stability index of a GFP-peptide fusion (GPS, HEK-293T) (PSI 1-6); higher = more stable
Settings: c terminus: a fixed tail appended
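Also: lentivirally expressed fusions sorted by FACS into six bins by GFP to DsRed ratio, PSI derived from sequencing read proportions per bin multiplied by bin number.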

Protein stability index of substitutions, site by site:
I1: N 3.18 | R 2.05 | D 2.75 | Q 2.26 | V 1.92 | E 1.93 | C 2.53 | G 2.05 | A 2.15 | F 2.34 | M 2.38 | K 2.42 | T 1.74 | H 2.44 | P 2.21 | L 2.29 | Y 1.49 | S 2.14 | W 1.33
N17: C 2.03 | A 2.3 | D 2.1
E9: T 1.86 | H 1.63 | I 1.38 | F 1.78 | M 1.82 | C 2.4 | R 2.02 | P 3.15 | S 1.86 | G 1.66 | Y 1.31 | K 1.63 | Q 1.62 | D 2.39 | V 3.07 | A 2.71 | W 1.58 | L 2.07 | N 1.92
D5: R 2.39 | K 1.4 | V 2.21 | C 1.92 | P 1.91 | F 2.03 | L 1.6 | E 1.96 | I 1.99 | Y 1.15 | N 1.88 | H 2.09 | A 1.78 | W 1.91 | G 1.91 | Q 1.93 | S 2.07 | M 1.95 | T 1.55
A16: P 2.15 | W 1.85 | F 2.02 | M 1.85 | L 1.86 | T 2.06 | D 2.37 | S 2.42 | Q 2.23 | C 1.69 | Y 2.67 | R 1.67 | I 1.6 | N 2.4 | G 2.04 | V 1.85 | H 1.71 | K 1.94 | E 2.42
P12: M 2.08 | D 2.7 | T 1.98 | F 1.78 | R 2.05 | V 1.84 | C 1.69 | E 2.46 | I 1.56 | L 1.9 | Q 2.11 | S 2.03 | G 2.69 | W 1.72 | Y 2.26 | K 2.1 | N 1.66 | A 2.04 | H 1.91
C7: T 2.68 | L 1.97 | M 2.08 | P 2.42 | H 2.13 | E 2.5 | Y 2.41 | D 3.72 | I 2.27 | A 2.58 | R 2.73 | Q 2.74 | W 1.43 | F 2.28 | V 2.34 | K 2.95 | N 2.81 | G 2.62 | S 3.23
A4: I 2.66 | D 1.95 | C 1.78 | M 1.51 | Q 2.28 | K 2.16 | L 2.09 | N 2.2 | Y 2.63 | G 2.55 | W 1.68 | R 1.83 | F 1.93 | E 2.48 | S 2.28 | H 1.65 | V 1.83 | P 2.47 | T 2.1
P8: M 1.71 | A 1.27 | I 1.5 | R 1.99 | V 1.95 | G 2.67 | L 1.85 | H 2.3 | Q 2.48 | W 2.02 | D 2.64 | S 2.46 | Y 2.48 | F 2.1 | C 2.07 | K 2.47 | N 1.88 | E 2.34 | T 1.82
C10: D 3.65 | R 2.29 | W 2.07 | E 2.83 | G 2.81 | Y 2.31 | I 1.74 | P 3.17 | A 2.41 | T 2.35 | S 2.92 | V 2.32 | L 2.31 | N 2.62 | K 2.59 | M 2.83 | Q 3.09 | H 2.6 | F 2.66
Y11: V 2.8 | E 2.73 | N 2.23 | G 2.84 | C 3.16 | P 3.15 | F 2.2 | I 2.25 | L 1.83 | T 2.32 | H 2.22 | R 2.72 | D 3.28 | Q 2.58 | M 2.15 | K 2.27 | W 2.1 | A 1.96 | S 2.69
Y6: I 2.24 | A 2.62 | R 2.44 | M 2.21 | L 2.05 | H 3.04 | V 2.46 | F 2.22 | K 2.66 | Q 3.12 | T 3.14 | E 2.52 | W 2.3 | P 3.33 | D 2.9 | S 3.25 | G 2.65 | C 2.67 | N 2.86
N14: A 2.31 | T 1.6 | W 1.03 | H 2.52 | S 2.72 | M 1.68 | K 2.25 | Y 2.08 | P 2.28 | Q 1.86 | R 2 | V 2.04 | C 2.2 | G 2.83 | L 1.67 | F 1.71 | E 2.64 | D 2.52 | I 1.53
R3: Q 2.32 | T 2.71 | F 2.12 | D 2.59 | N 2.36 | W 1.35 | G 2.65 | M 1.91 | E 2.42 | Y 1.9 | V 1.74 | S 2.2 | I 1.54 | P 2.42 | C 1.66 | A 2.42 | K 2.39 | H 2.39 | L 2.14
N2: C 3.06 | H 1.84 | T 1.78 | P 2.92 | I 1.7 | L 1.79 | M 1.88 | G 2.15 | K 2.29 | D 2.64 | W 1.61 | R 1.26 | Q 2.03 | V 1.91 | A 1.65 | S 1.82 | Y 1.7 | F 1.55 | E 2.11
D13: A 1.94 | H 2.07 | V 1.63 | Q 2.28 | W 2.18 | M 2.25 | C 1.97 | N 2.08 | Y 1.57 | S 1.82 | L 2.53 | P 2.11 | G 1.98 | E 1.86 | F 1.56 | I 1.71 | T 2.37 | K 1.68 | R 1.69
P15: H 2.46 | I 2.29 | K 1.74 | T 1.9 | D 2.12 | Y 1.84 | G 2.48 | Q 2.1 | N 1.97 | R 2.07 | V 1.51 | C 2.02 | M 2.19 | F 1.44 | W 2.19 | S 2.94 | E 2.58 | A 2.9 | L 1.97

Variants of: B2
Test: as above
Settings: c terminus: a fixed tail appended

Protein stability index: each site, then its substitutions
V5: N 3.59
H2: V 2.59
I3: H 2.29
P22: S 1.55 | Y 1.77
I11: F 1.6 | N 1.48
R13: H 1.75
E9: Y 1.98 | A 1.91
K15: Y 2.13 | C 2.2
V23: Y 1.64
Y1: V 1.67
N14: R 2.32
V19: D 2.7
E16: Q 2.11 | A 2.67 | Y 1.88
E12: S 2.42
A21: I 1.87
E8: M 4.06 | S 3.74
S17: Y 1.26 | I 2.46
A6: P 1.99 | E 1.88
